# Measurements: paper PMC314469, “Protein Interaction Networks by Proteome Peptide Scanning” (PLoS Biology, 2004)
# T1: Boi1 SH3 (BOI1_YEAST), P38041
# T1 chain: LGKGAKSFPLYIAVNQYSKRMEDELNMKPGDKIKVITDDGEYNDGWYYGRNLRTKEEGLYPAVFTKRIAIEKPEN
# T2: Myo5 SH3 (MYO5_YEAST), Q04439
# T2 chain: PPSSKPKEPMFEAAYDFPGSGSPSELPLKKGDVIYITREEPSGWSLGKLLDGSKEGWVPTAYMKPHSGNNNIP
# T3: Yfr024 SH3 (LSB3_YEAST), P43603
# T3 chain: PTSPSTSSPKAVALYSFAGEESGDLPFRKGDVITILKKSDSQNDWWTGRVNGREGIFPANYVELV
# T4: Yhr016c SH3 (YSC84_YEAST), P32793
# T4 chain: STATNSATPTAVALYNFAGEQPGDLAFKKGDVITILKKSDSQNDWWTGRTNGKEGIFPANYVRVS
# T5: Boi2 SH3 (BOI2_YEAST), P39969
# T5 chain: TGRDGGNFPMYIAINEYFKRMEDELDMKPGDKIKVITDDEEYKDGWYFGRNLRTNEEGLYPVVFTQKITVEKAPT
# T6: Rvs167 SH3 (RV167_YEAST), P39743
# T6 chain: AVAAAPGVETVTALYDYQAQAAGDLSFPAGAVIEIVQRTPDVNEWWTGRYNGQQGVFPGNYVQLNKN
# Columns and labels:
# Assay in all cases: SPOT array
# [1] = target: T1, Boi1 SH3 (BOI1_YEAST), P38041
# [2] = target: T2, Myo5 SH3 (MYO5_YEAST), Q04439
# [3] = target: T3, Yfr024 SH3 (LSB3_YEAST), P43603
# [4] = target: T4, Yhr016c SH3 (YSC84_YEAST), P32793
# [5] = target: T5, Boi2 SH3 (BOI2_YEAST), P39969
# [6] = target: T6, Rvs167 SH3 (RV167_YEAST), P39743
# [7] = target: Sho1 SH3 (SHO1_YEAST), P40073
# Sequence of Sho1 SH3 (SHO1_YEAST), P40073 (P40073 295-366): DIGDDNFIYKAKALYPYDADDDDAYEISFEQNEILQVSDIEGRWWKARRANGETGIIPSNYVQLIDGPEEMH
"normalised SPOT signal, Boehringer light units (BLU); mean over the file's lines of this peptide [1]","normalised SPOT signal, Boehringer light units (BLU); mean over the file's lines of this peptide [2]","normalised SPOT signal, Boehringer light units (BLU); mean over the file's lines of this peptide [3]","normalised SPOT signal, Boehringer light units (BLU); mean over the file's lines of this peptide [4]","normalised SPOT signal, Boehringer light units (BLU); mean over the file's lines of this peptide [5]","normalised SPOT signal, Boehringer light units (BLU); mean over the file's lines of this peptide [6]","normalised SPOT signal, Boehringer light units (BLU); mean over the file's lines of this peptide [7]",Binder
110,62.9,13.5,4.6,12.3,26,15,DIPLKQVPENPMPT [YIL155C 374-387]
1850,307,315,48.7,3.5,68.6,48.8,DGKLKHIPRRPYEI [YEL007W 26-39]
3940,220,50,12.3,34.4,38.1,608,DIGSKKLPTGPSKK [YER164W 1276-1289]
223,532,245,15.7,0,66.5,114,DKKKKKYPRKPKKN [YDR485C 332-345]
2880,250,790,154,26.3,177,1070,DLDWRKIPFLPKEI [YLR427W 487-500]
114,225,0,37.1,2.8,40.7,32.6,DLQKKYEPSPPATH [YCR069W 34-47]
14100,33,748,116,52.6,956,33.7,DIPRRYIPITPADL [YMR126C 79-92]
164,186,16.5,14.6,21,27.7,4.2,DLKKKYAPDPPITH [YNR028W 35-48]
352,250,156,19.3,18.8,41.9,35,DLSLRYAPNLPRVI [YLL048C 1385-1398]
17.2,179,0,16.3,26,25.3,32.3,DNELKDEPEPPNLI [YGR093W 206-219]
137,139,59.3,37.2,41.4,162,17.3,DFIGRKSPDLPEYL [YLL006W 228-241]
170,146,0,18.3,17.3,0,26.9,DILKKESPDVPLFD [YBR155W 341-354]
66.5,99.1,0,14.1,26.3,47.5,16.7,DKIFKTDPNEPAND [YDL174C 572-585]
344,102,48300,36000,23.2,52200,31.3,DIKTRSVPKIPSIE [YBR163W 320-333]
117,253,1380,95.2,0.3,39,112,DKFIKLIPMRPVLI [YDR479C 286-299]
5020,785,1600,257,1390,1830,975,DFRGRAYPLSPHFN [YFL036W 825-838]
